# Data taken from the DeepSol protein solubility set.
# Experiment: soluble on expression in E. coli; label from the status in PepcDB or PDB records
row,Sequence,soluble on expression in E. coli
1,MGSDKIHHHHHHMQAEAQHPKAEQYRTARLSRDARFDGLFFVGVFSTGIFCRPICPAVPAKEANVRYFDDALSAAQAGLRPCLRCRPDSAPGSNPWLGKQTSLNRAMSLIDAGVLCGPQAIPMTGLAERLGISERYLRQLFHDSLGTSPKQYALYQQLMFAKQLLHQTKMPITQVAYAAGFNSVRRFNEIFRQQLQLTPSEIRKATGQPSLPVQGLTLKLAYRPPYDWQHLRSFFAQRAVPEMEWLDEQSYGRSFVLGAAKGYFCAVHSEQEACFHVTIHLAEADSLSQLKGIISHIRRILDLDADMLTIGDKLQALGKALPQVSPGLRLPGVWSPFEAACRAILGQQVSVTQAIKLLGQLVADHGETISLNEKTVRLFPTPAALVDASLDGLKMPGIRKEAIRALAAFVMANPESEIDDWLQIKGIGPWTLDYVRLRGLSLPDVLLVGDLVVKQQLLVNLRPEPSSCDGEPAEDEDPKAAKKRAQAQYQALSQAVLRQVAPWGSYLTLQLWNRQ,not soluble
2,MAHHHHHHMRADSVSQTRKQQPNSSALGDDGDDEGANGEVEGRPMRQCMHITDKEIVIKLQNWFCDSNEIAGEWEAAGKTESRRSGASSNLEISQTIPFHSSHKSSLGKSASSSTLRPSNTCIPADLSAPLDGAPSLEVSTTSETRKIHSARGPRADERASRPYRTPSTDAVRYCAVYLRHFATIHQQHPYENSRQEQLLPTLAPEPLTAPLVALLTPWERNFIYRDILGQTEEQVSRAMEIVEHSPNMSYTYPTPFLKVSGISRVLLVEPPAAERVALLLRVMRAAEVLQVPSLRSLCAAWCADFIVRASYGARDHFEAAALVRRCFQVQNDWSRKEMDCLKLENEWPVNEEEY,not soluble
3,MKKGILIILLVLMVLSCGTSKKVTLPDKDIKIENETVFFKNEKYTGKINLKDKNSVSGFITFKDGHLDGPTELKNDKKQMYTKFNIVNNQFEGETVVKNADQGINMTVNYNNGKIVKLLGDYSKTVKYDITFVDGLANGWFESEGEKFVFSDGVLTLEEDGITTEVKYYVNQETGDMGMEFFINGKSAGRDEKPNKVFGMEYFRIIAISSILEENSKGKDK,not soluble
4,MKDTLGFEHADRSLYYRFRNSLSSNLHLTHFDIETKLEVAKKFNLILNDQFVKDLNSTMNLIFEPNGCLASYTWKTDFLDYTLNPMELIIPYQSVIPSKTVPYRKRRMNDLEDLRKIKECSKRAFISNSDQSEVPSTSMLNSMKEMITEAVETSNKKLIEELKTSNEALVAQVANFKSKHIEQSSGKPGMRAYLEGLKGFLHHLNMPELADIKVRLNTLEKDLGDTDQPIPVQSIHSVLDIGLKLIGG,not soluble
5,MVKVVGVRFKKAGKIYYFDPGDLEINLHENVIVETARGIEFGQVVVPNTEVSEEEIVAPLKKVIRVATEEDKAHHEDNIRREKEAFDICLQKIANHKLEMKLVGVEYTFDNNKILFYFTADGRVDFRELVKDLASVFRTRIELRQIGVRDEAKMMGGLGVCGRVLCCNSFLGEFQPVSIKMAKEQGLSLNPAKISGACGRLMCCLKYEQEAYEEIISRVPKEGAIVETPDGQGVVMSVSLLKELVKVKLDRENETDLKVYKASEVKVIKDVTREETEEEEIDLDELKQLED,soluble
6,MGSDKIHHHHHHMFEEIAYMILADGNEKSRFEANAYLRAARSLRSITEDVEDIYNRGGIEALTSVEGIGKKIASYIEEYIKTGRIKRYDDLKIRYPVDFRDLSRVQGLGPRKIVSLYKYAGVKNIDDLKAALADHRIASIPGFGEKSEKEIAENIQIAEMSFRRIPLPQGYRTAMEIADEIERAAGTVRVSVAGSIRRMRDTVGDIDLLCVTSDPPRAIAAFTGSKHCQRVVSSGEKKVTIATDAGVTCDLRIIDKGSFGSALQYFTGSKDHNIKLRKIAIDRGLKLNEYGLFRGNSNLVENQGEEKIYAELGMQYIPPELREDRGEIDRAISMTLPELVEAGDIRGDLYISYEFIRKYGADVLKKMERLQYFGVVLGSPEEKEGIKSVMNDGRIFLGIELTSKTYAEDAGEFDFTVLDLSGFPDEASARGAIESVKPTFIRNVTGRTFSSGRKMDPANIFEAAAKSGSAVMITASNDAFDPVAEDIMPHREGLMFALASFAQRPDDLGDMTFGIGIARRAWISKDRIINTMDYEKIAKIMRRP,not soluble
7,MSYGLIIVLMIILGIGLWHTKKYHRAVVNQVAHVWITKNAFEHTALGMAIVSPDCRFLKVNRAYGEITGYTRPELLKMAVKELTHPEDQEKDTPYLQEVFAGNIHSFTTVKRYIHKNGSTIWVRSTISAVRTERGNLKYFVLEHHHHHH,not soluble
8,MTEALEQPLRRILSYWRNEIKPLLDAETGTLFKQAPIRVTLAFPNRYSVGMASLGYQVIYRMFNQEEGVACERAFLPDDVDAFERTGQALPTVESGRAAGDCELFSISVSFELDLTNIIRLIDVAGMNPLREERDETDPVVMIGGPLTSSNPYPLTPFADIIIIGDGEQIVPVVSEALRESSSREDFYDLIDGVPGVFLPARHVHEPTWATAPKELLPAYSQIVTPHSELSNMFLVEAQRGCPRPCTFCLARTMYGPNRNNQAQELLDVIPDWVEKVGLVGAALSDFPHTKFVGKTLTERGVKLGVSSIRADTVDAELAEILKAGGLRTFTVASDAPSERLRRWLKKGITTEDLLKTAQISRDLGFSGLKVYMMIGLGPENDDDITELISFTKELAGINRIALGISPFVPKRHTPHFADPFAGVQTIEKRLKRIQKELRTTAELRNVSAKWAWVESVIARGGPEVGMAAYQIYRNESIGAWKKALDEVGWQDDFEANTPSIGLPPGQYESKEVSAHAQGLAVLEHHHHHH,soluble
9,GEFPLQTKTDIHAVLASNGRIIYISANSKLHLGYLQGEMIGSFLKTFLHEEDQFLVESYFYNEHHLMPCTFRFIKKDHTIVWVEAAVEIVTTRAERTEREIILKMKVLEEE,soluble
10,MSLTIKVFSPKYPTELEEFYAERIADNPLGFIQRLDLLPSISGFVQKLREHGGEFFEMREGNKLIGICGLNPINQTEAELCKFHINSAYQSQGLGQKLYESVEKYAFIKGYTKISLHVSKSQIKACNLYQKLGFVHIKEEDCVVELGEETLIFPTLFMEKILSEGHHHHHH,soluble
11,MGSDKIHHHHHHMDEQVTILHTNDIHSHFENWPRIQRYLLTEREQRRQSGSHVITVDLGDAVDRAHPLSEATQGQANVALLNAIGYDAVTIGNNEGLGLTHAALNRLYDRANFDVVLDNLTDTATQRPPQWALPAKIITTARGTRVLLLAFTAPFTLTYPLNGWTPASVKTRFPELLRQYAGQYDVLIVMSHLGINVDRWLAKQFPVIDVVIGSHTHHLLVNGELKNGVLIAAAGKYGEYIGRIELTIDHQHHVKAAAAHTVATASLPIVAGDETLITGWEQQGETLLTRQVVAKVPTQLRPHWHHASDLTALGLAAITDYAKTDLGMLNGGLFMRDLPAGMVNRNDLHTMLPHAMHVIRVTLSGEALWRLVYEMELVRPFLNKFPIKGMGFRGQVFGYIQYQGLTWKTGQHTLLVNGQPVNRQQTYQIALLDHDLFIPFFPTINISGRTEILFEAMLRTVVGDYLMRRWPVK,not soluble
12,PLTEAQKNKLRHLSVVTLAAKVKCIPYAVLLEALALRNVRQLEDLVIEAVYADVLRGSLDQRNQRLEVDYSIGRDIQRQDLSAIARTLQEW,not soluble
13,NLLEEESAVLGQAVTNLMLSGDNVNNKNIILSLIHSLETTSDILKADVIRKTLEIVLRYTADDM,soluble
14,MEERELVEYFRGQIREDPDVASAVAAIRSLLEFLKRDQSETILGLRENMTQAIHRLQEADPSVAVSSGGELFLRFISLTSLEHPDLSQCKNVMIERGELFLKKISLSRGKVGKLCHTFIKDGAKILTHSSSRVVLKVLENAAADNKRFTVKLMAEKLRKLSIPVTVVLDAAVGYILEKVDLVIVGAEGVVESGGVINKIGTYQMAVCSKAHNKPFYVVAESFKFVRLYPLNQQDVPDRFKYKADVLKTAEDLNQEHPLIDYTPSSLITLLFTDLGVLTPSAVSDELIKLYL,soluble
15,MNASQPPPGGRLPDEVFRKITAVDQGQSTLTQSGIQGLSARTLSSEPRGDLVFQLVEIIKKPGQSLGLYLREGNGKDRSDGVFVSRFGDNSELAKYGEVMRPGDEILTINNVEVSMMSIDDVVLILSIPRRLLLRIRYSKSMRHEIISSRSRESERPVVVFHKYDDRRDSETNAPILSQPTSTANTWLGKKSRQQMEEMRNATTSSTLRTHASTSSPRNHFAPRLVNGHSHSIGVPSASTTSHDHQYQRFASEPSDSVSRTARVPPPRLASATVRRTESFNSAPGVSTSAPMYTLPRSSTAVPPPDILGSIPYSARDPLMRSSADLPYDPMTGRLSSSVPTDPLLSRSLCSPILPRTLRQANDSNKSNSLPRRRIMTGGRNVKWRNDVVSTSDLCGEESDGAISAPEYSSPPFSRLTQQQQFRLSNGSPGRTVNDIFSAAEYRNWAGPYDPRGMYGPFPPGQRATRWSHTYGEQRAPRTSSLPGRTVLAQSLVGSPVLPRHPPPIVQDRPSAVFDRYHVSPLMNRRAPLRAAGPGINVDRLSVSSLTGILYVHIVEGRGLKIPEKQKGLTEEMYCVLEVDEQHRARTGVSTIEQKFKWRETFHIDVVNATVSNFFVYSWHPQFRHKLCHKGSLKLLEAFVVDQLNDDRVFALNLEPRGQLIVRIGFHDLQAVFRRTVNPRLNGVFGISLSRLVQRERRDTPIVLTRLIQEIEKRGVDYSGLYVLCGSVEKKKMLRAELESNPLGTELAAESIPDTNVIACLIKDFLRELPEPLISPQIHGMLLEAASVALPNDVQTNRHLVLKIIDCLQLSAKNCLLLVLDHLSTVLCSSPHNGLTPTRLSLIFAPLLFFCLDTFSPYTISPTSKMAAVRTLDINQASSSLQMILSIWPSRVSELVEFFPFLLNYPTVSYSSPNPHSESGSDSPATTCQKGGVIAYVSESQC,not soluble
16,MDPTEMRYLEEENGAMMKTFKDAVTGFATGKTSLVFIGVEQLVQNFRAKRDFFNGAHITMTKVARTHY,soluble
17,MSPSPLISHRAASADLAGMVRQARQRILLQGNVPGFDVARQIELLHGLAESELGRFLLLYRGLNAEWTHRLVTHQPGSGALAPLERVFYERLPAVLATRERHGHFRRALQRHLRPGCVVASVPCGWMSELLALDYSACPGVQLVGIDYDPEALDGATRLAAGHALAGQITLHRQDAWKLDTREGYDLLTSNGLNIYEPDDARVTELYRRFWQALKPGGALVTSFLTPPPALSPDSPWDMQAIDPHDLQLQQLVFTRLIQPRWNALRTHAQTRAQLEEAGFTDLRFEDDRARLFPTVIARKPA,soluble
18,GSHMKISARNVFKGTVSALKEGAVNAEVDILLGGGDKLAAVVTLESARSLQLAAGKEVVAVVKAPWVLLMTDSSGYRLSARNILTGTVKTIETGAVNAEVTLALQGGTEITSMVTKEAVAELGLKPGASASAVIKASNVILGVPA,soluble
19,MAGLVDRVSGARLDPAAEAEIRYLEAMIARLEAGEEDPEDFRVFRLKNGIYGIRGRPEHHMIRIKLPVGRITPEGLRVLADVAERYAENRLAHVTTRQAVQLHHVHRRDVPKVLRAVNAVGLTTREACGHSIRAITCCPYAGVSPEEPFDVTPYAEAAYRYFLRHPVGQNLPRKFKIAFEGCAADHARTPIHDIGVVAALEGGKRGFRVYVGGGLGAAPMSAELLEAFTPEEDLLPTMLAIVRLFDRYGNRKVLTQARLKFLVKKWGIAAFREAVREERRLVKLTASGEDLEAWAPPPEPEPPRLPSPPKKPFSFAPGFDAWRRTNLFKQKQEGFYTVTVRLPLGDITPEGLRALAAIAETYAAEVRSAISQNLLLRFVPEEALGGLYEALLEAGLALPEAHTLLDITRCPGADTCNLAITRSRGLAQALEAHLATLPLAQDPGAKAIGVKISGCPNSCGQHHIADIGFYGSSRKVGEREVPHYVLLLGGRTREGEARFGQVVGRLPARRVPEAVERILKRYLEERQNGESFQAYLDRVGAASFKPLLQELQEVPPYEEAPEFYQDLGAEGEAFSVQLGRGECAV,soluble
